The target in one test is T1, recombinant UBE2K (UniProt P61086 1-200).
T1 construct: UBE2K, ubiquitin-conjugating enzyme E2 K, recombinant; source: bought: R&D Systems (NBP2-35096)
T1 sequence (looked up): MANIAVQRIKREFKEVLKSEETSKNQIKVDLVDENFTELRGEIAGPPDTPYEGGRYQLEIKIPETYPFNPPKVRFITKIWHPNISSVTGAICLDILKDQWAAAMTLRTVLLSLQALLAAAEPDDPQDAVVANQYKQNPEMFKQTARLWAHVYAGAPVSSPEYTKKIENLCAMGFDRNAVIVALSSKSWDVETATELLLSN
Put plainly: pull-down; MBP fusions of UBA1 fragments (5 ug) on beads, treated with AF 1.5 h and washed, then incubated with recombinant E2 2 h at room temperature in 150 mM NaCl, 10 mM Tris/HCl pH 7.4, 1 mM EDTA, 1 mM EGTA, 0.2% NP-40; immunoblot; in Fig. 2a also after iodoacetamide or with DTT. Particulars: both partners purified. For orientation: A western blot detects proteins with antibodies after separation by electrophoresis.

The target of another test is T2, recombinant UBE2G2 (UniProt P60604 1-165).
T2 construct: UBE2G2, ubiquitin-conjugating enzyme E2 G2, recombinant; Called His-UBE2G2 only in the charging assays; no tag is named for the pull-downs; also called His-UBE2G2; source: bought: R&D Systems (E2-680-100)
T2 sequence: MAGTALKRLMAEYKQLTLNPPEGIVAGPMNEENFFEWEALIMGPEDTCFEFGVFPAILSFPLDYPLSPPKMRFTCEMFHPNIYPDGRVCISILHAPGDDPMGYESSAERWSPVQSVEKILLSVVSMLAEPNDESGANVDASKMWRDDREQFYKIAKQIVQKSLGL
The description is as above. Particulars: both partners purified.

B1: MBP-UFD (942-1058) (domain or fragment)
chain: not shown
notes: UBA1 C-terminal ubiquitin fold domain (UFD), aa942-1058; The pull-down methods name the construct 'AAD-UFD'; also called UFD fragment of UBA1
Turning to B1, the binding result in the test with recombinant UBE2K and with recombinant UBE2G2 was “binds” each time.

B2: MBP-UFD (C1040A) (domain or fragment)
chain: not shown
notes: UBA1 ubiquitin fold domain (UFD), aa942-1058, with C1040A; also called MBP-UFD with cysteine mutation; source: recombinant
For the molecule B2, the binding result with recombinant UBE2G2 is listed as “binds”.

B3: MBP-UFD (C1039A) (domain or fragment)
chain: not shown
notes: UBA1 ubiquitin fold domain (UFD), aa942-1058, with C1039A; also called MBP-UFD with cysteine mutation; source: recombinant
For B3, the binding result with recombinant UBE2G2 was “binds”.

(Values after paper PMC10412574, “Auranofin targets UBA1 and enhances UBA1 activity by facilitating ubiquitin trans-thioesterification to E2 ubiquitin-conjugating enzymes” (Nature Communications, 2023).)
